According to patent US20160272953A1, “Activated Sugars” (ZuChem, Inc., priority 2010, published 2016):

B1: T. thermophilus: Thermus thermophilus wild-type sugar-1-kinase (SEQ ID NO:9) (protein, listed as Thermus thermophilus)
chain: MGFQEVYGVLPQASAQAPGRVNLLGEHTDYQEGYVLPTPIPYFTRVEAAPLEGAVEAFSENLGELRARPLSSPPQGDFLDYLLGVVRALREAGHEVAGARFYVRSDLPMGAGLSSSAALEVAALRALRTLYRLPLSDLEVARLAQKAEVEYVGVRCGIMDQMAASLGQPGQALFLDTRTLAYENLPLPPGVRVAVLDLGLGRRLAEAGYNRRRQEAEEAAKRLGVRSLRDVADLCLVESLPSPLDRRARHVVSENLRVLRGVEALRRGDARAFGELMTQSHRSLAQDYEVNLPELDALVEEALRAGAYGAKLTGAGFGGAVVALVAESRFPAFREALARRFPDLKVL
B2: S. thermophilus: Streptococcus thermophilus wild-type sugar-1-kinase (SEQ ID NO:8) (protein, listed as Streptococcus thermophilus)
chain: MNTSQLREKFKEVFGVEADHTFFSPGRINLIGEHTDYNGGNVLPVAITLGTYGAARKRDDKVLRFFSANFEEKGIIEVPLENLRFEKEHNWTNYPKGVLHFLQEAGHTIDSGMDIYIYGNIPNGSGLSSSSSLELLIGVIVEKLYDIKLERLDLVKIGKQTENDFIGVNSGIMDQFAIGMGADQCAIYLDTNTLKYDLVPLDLKDNVVVIMNTNKRRELADSKYNERRAECETAVSELQEKLDIQTLGELDFLTFDAYSYLIKDENRIKRARHVVLENQRTLQARKALEAGDLEGFGRLMNASHVSLEYDYEVTGLELDTLAHTAWEQEGVLGARMTGAGFGGCAIALVNKDKVEDFKKAVGQRYEEVVGYAPSFYIAEVTGGSRVLD
B3: P. furiousus: Pyrococcus furiosus wild-type sugar-1-kinase (SEQ ID NO:10) (protein, listed as Pyrococcus furiosus)
chain: MSKITVKSPGRVNLIGEHTDYTYGYVMPMAIDLYTIITAEKYDKVQLYSEHFNEEKTFTLDNLTKEGSWIDYVKGVLWVLIQEGYKIGGLKGKITGDLPLGAGLSSSASFEVGILEVLNQLYNLNIDPLKKALLAKKAENEFVGVPCGILDQFAVVFGKKDNVIFLDTQTLQYEYIPFPKDVSVLVFYTGVKRELASSEYAERKRIAEESLRILGKESSKEVTEKDLGKLPPLHRKFFSYIVRENARVLEVRDALKEGDIEKVGKILTTAHWDLAENYRVSCEELDFFVKKAMELGAYGARLTGAGFGGSAIALVDKDKAKTIGDAILREYLAKFSWKAKYFVVKPSDGVGV

Experiment: Sugar kinase activity of cell lysates with D-galactose at 37, 45, 55° C. (DNS assay)
Format: biochemical
Settings: 8 mM D-galactose; 37, 45 and 55° C.
Excerpt: The formation of a phosphorylated sugar by kinase activity can be monitored by a number of methods. One method for detecting sugar-1-kinase activity is the 3,5-dinitrosalicylic acid (DNS) assay. This assay exploits the fact that reducing sugars can reduce compounds such as 3,5-dinitrosalicylic acid, which undergo a color change upon reduction. This assay can be used for sugar-1-kinases since the product of their reaction (sugar-1-phosphate) no longer has the ability to reduce DNS. Therefore, when the reaction is complete no color change occurs when incubated with DNS and the result is a yellow color. However, when reducing sugar remains, the result is reduction of DNS and red/brown color. This assay is furthermore concentration dependent providing a linear color change from 0.1 to 10 mM reducing sugar.
The sugar kinase proteins were expressed recombinantly in E. coli induced with 0.5mM IPTG and partially purified cell lysates were then assayed (100 μL) with 400 μmM ATP, 3.5 mM Mg^2+, and 8 mM D-galactose at three different temperatures, 37, 45, and 55° C. […] A negative control was treated similarly and consisted of the host strain with empty plasmid.

Row | Molecule | activity in partially purified cell extract
1 | B1 | more active at temperatures higher than 37 °C
2 | B2 | most activity
3 | B3 | more active at temperatures higher than 37 °C
